Results reported in patent US20250179144A1.

How the values were obtained:
[1] = target: G115 Vγ9Vδ2+ TCR Glu52δ-Ala expressed on transfected HEK293T cells; test: flow cytometry, tetramer-PE against CD3-APC on HEK293T cells co-transfected with CD3 and G115 Glu52δ-Ala TCR; SAv control 32
[2] = target: G115 Vγ9Vδ2+ TCR Lys53δ-Ala expressed on transfected HEK293T cells; test: flow cytometry, tetramer-PE against CD3-APC on HEK293T cells co-transfected with CD3 and G115 Lys53δ-Ala TCR; SAv control 27
[3] = target: G115 Vγ9Vδ2+ TCR wild-type expressed on transfected cells; test: flow cytometry, tetramer-PE against CD3-APC on HEK293T cells co-transfected with CD3 and G115 WT TCR; SAv control 27
[4] = target: G115 Vγ9Vδ2+ TCR His85γ-Ala expressed on transfected HEK293T cells; test: flow cytometry, tetramer-PE against CD3-APC on HEK293T cells co-transfected with CD3 and G115 His85γ-Ala TCR; SAv control 27
[5] = target: full-length human BTN3A1 on transfected cells (human) (UniProt O00481); test: flow cytometry, γδTCR tetramer-PE on BTN3A1-transfected NIH-3T3 cells treated with isotype IgG1κ (black number); SAv control 26
[6] = target: full-length human BTN3A1 on transfected cells (human) (UniProt O00481); test: flow cytometry, control tetramer-PE on BTN3A1-transfected NIH-3T3 cells treated with isotype IgG1κ (black number); SAv control 25
[7] = target: full-length human BTN3A1 on transfected cells pre-treated (cross-linked) with anti-BTN3A mAb clone 20.1 (human); test: flow cytometry, FRET (YG 670/30) between TCR tetramer-PE and anti-BTN3A 20.1-AF647 on BTN3A1+ NIH-3T3 cells; with IgG1κ-AF647 the gate holds 0, with SAv 0

Chain of mCD1d tet. ctl (P11609 22-305): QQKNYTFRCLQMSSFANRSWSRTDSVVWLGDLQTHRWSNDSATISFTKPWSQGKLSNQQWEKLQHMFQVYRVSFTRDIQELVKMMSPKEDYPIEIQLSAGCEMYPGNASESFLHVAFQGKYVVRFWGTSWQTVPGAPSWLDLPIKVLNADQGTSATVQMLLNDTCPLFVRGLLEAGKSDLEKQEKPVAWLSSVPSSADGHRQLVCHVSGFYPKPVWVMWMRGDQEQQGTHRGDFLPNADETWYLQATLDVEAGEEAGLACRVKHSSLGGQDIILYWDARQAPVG
Chain of soluble G115 Vγ9Vδ2+ TCR wild-type (TCR delta): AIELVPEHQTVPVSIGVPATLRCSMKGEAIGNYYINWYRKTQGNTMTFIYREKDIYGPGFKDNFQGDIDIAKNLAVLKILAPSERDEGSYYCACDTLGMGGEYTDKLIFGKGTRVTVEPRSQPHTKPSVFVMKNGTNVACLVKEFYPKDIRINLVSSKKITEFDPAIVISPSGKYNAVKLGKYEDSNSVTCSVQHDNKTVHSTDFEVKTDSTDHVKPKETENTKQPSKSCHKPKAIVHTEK
Chain of soluble G115 Vγ9Vδ2+ TCR wild-type (TCR gamma): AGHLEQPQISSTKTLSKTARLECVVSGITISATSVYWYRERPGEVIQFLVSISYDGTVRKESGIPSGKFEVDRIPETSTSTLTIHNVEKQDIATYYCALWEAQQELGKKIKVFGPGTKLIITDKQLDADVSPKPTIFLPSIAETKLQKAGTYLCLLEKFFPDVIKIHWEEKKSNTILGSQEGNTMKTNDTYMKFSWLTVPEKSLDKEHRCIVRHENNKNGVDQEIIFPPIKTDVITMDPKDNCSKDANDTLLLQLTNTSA

MFI of PE [1] | MFI of PE [2] | MFI of PE [3] | MFI of PE [4] | MFI of PE (GFP+ gate) [5] | MFI of PE (GFP+ gate) [6] | % cells in the FRET gate [7] | Substance
72 | 753 | 102 | 63 |  |  |  | BTN2A1-BTN3A1-zipper ectodomain complex (construct #1, long linker version with high affinity zippers) (ligand)
 |  |  |  | 24 |  |  | chimeric γδTCR tetramer: G115 pAg-reactive Vγ9+ γ-chain with 9C2 Vδ1+ δ-chain
26 | 23 | 20 | 22 |  | 32 |  | mCD1d tet. ctl
469 | 507 | 282 | 28 |  |  |  | soluble BTN2A1 ectodomain lacking Cys247 (monomeric) (from UniProt Q7KYR7 29-246) (ligand)
 |  |  |  | 35 |  | 19% | soluble G115 Vγ9Vδ2+ TCR wild-type
